Test results from US20040038894A1, “Compounds for modulating cell negative regulations and biological applications thereof” (INSTITUT NATIONAL DE LA SANTE ET DE LA RECHERCHE MEDICALE …, priority 1996, published 2004).
Blank lines part the entries; values can stand above or below the molecule they belong to. Where no end group is shown, it is not given here. [ ]: non-standard residue; d: D form. The star is where a group is joined. Biotin = O=C1N[C@H]2[C@H](CS[C@H]2CCCCC(=O)*)N1; pY = N[C@@H](Cc1ccc(OP(=O)(O)O)cc1)C(=O)O

Key:
[1] = biological target: phosphorylated NKG2A N-term peptide (N-terminal ITIM) (human); experiment: SPR (BIAcore); upper end of the range, tied by Table 4 to GST-SHP-1.SH2(N+C) and the N-terminal ITIM (4.80)
[2] = biological target: phosphorylated NKG2A N-term peptide (N-terminal ITIM) (human); experiment: SPR (BIAcore), 25 RU phosphopeptide on streptavidin chip, GST fusion injected
[3] = biological target: phosphorylated NKG2A C-term peptide (C-terminal ITIM) (human); experiment: as above
[4] = biological target: phosphorylated NKG2A N-term peptide (N-terminal ITIM) (human); experiment: SPR (BIAcore); lower end of the range, tied by Table 4 to GST-SHP-2.SH2(N+C) and the N-terminal ITIM (1.38)
[5] = tested on: melanoma-specific CTL clones; experiment: Auto-presentation assay, TNF release; assay type: cell-based, human; settings: clone M117-14, TYR peptide 10 μM, mAb without cross-linking
Protocol: (§1) 5×10^4 CTLs were incubated with indicated concentrations of peptides in 100 μl final volume. After two hours, supernatants were harvested to test the TNF secretion and lysis was estimated by flow cytometry on the basis of size/granularity patterns as previously described. TNF determinations were performed by a biologic assay using cytotoxicity on the sensitive WEHI 164 clone 13 cells, as compared to a standard curve established using rTNF-β (Genzyme).
Results are illustrated by FIG. 13 showing that CD94-NKG2A inhibits the antigen-specific TNF production by CTL clones. In FIG. 13, the melanoma specific CTL clones M117-14 and 7-10 were stimulated in an auto-presentation assay with their respective cognate peptides (i.e.:EAA for 7-10 and M77-84, and TYR for M117-14) at a concentration of 10 μM, in the presence or indicated mAbs. TNF release was assessed in the supernatant by a biological assay using the WEHI 164, a TNF sensitive cell line. Data from one representative experiment out of five, are expressed as mean TNF (pg/ml)±SD of triplicate samples.

[6] = tested on: melanoma-specific CTL clones; experiment: Auto-presentation assay, CTL lysis; assay type: cell-based, human; settings: clone M117-14, TYR peptide, 2 hours
Protocol: as §1
Results are illustrated by FIG. 14 showing the negative regulation of antigen-induced CTL clone cytotoxicity by CD94-NKG2A. In FIG. 14, cells from the melanoma specific CTL clone M117-14 were stimulated in an auto-presentation assay with the indicated concentrations of cognate peptide (TYR). Cytotoxicity was measured, in the presence or absence of anti-CD94 mAb (HB-3B1). Cell lysis was estimated by flow cytometry on the basis of size/granularity patterns after auto-presentation in a short term assay (2 hours). Data shown are representative from 5 independent experiments.

[7] = biological target: T1, SHP-1 protein tyrosine phosphatase from RBL-2H3 cell lysates (rat (cell line RBL-2H3), UniProt P81718 1-613); experiment: cell lysate adsorption to peptide beads, immunoblot (RBL-2H3)
T1 construct: Detected by immunoblot with anti-SHP-1 mAb

[8] = biological target: T2, SHP-2 protein tyrosine phosphatase from RBL-2H3 cell lysates (rat (cell line RBL-2H3), UniProt P41499 2-593); experiment: as above
T2 construct: Detected by immunoblot with anti-SHP-2 mAb
T2 sequence (looked up): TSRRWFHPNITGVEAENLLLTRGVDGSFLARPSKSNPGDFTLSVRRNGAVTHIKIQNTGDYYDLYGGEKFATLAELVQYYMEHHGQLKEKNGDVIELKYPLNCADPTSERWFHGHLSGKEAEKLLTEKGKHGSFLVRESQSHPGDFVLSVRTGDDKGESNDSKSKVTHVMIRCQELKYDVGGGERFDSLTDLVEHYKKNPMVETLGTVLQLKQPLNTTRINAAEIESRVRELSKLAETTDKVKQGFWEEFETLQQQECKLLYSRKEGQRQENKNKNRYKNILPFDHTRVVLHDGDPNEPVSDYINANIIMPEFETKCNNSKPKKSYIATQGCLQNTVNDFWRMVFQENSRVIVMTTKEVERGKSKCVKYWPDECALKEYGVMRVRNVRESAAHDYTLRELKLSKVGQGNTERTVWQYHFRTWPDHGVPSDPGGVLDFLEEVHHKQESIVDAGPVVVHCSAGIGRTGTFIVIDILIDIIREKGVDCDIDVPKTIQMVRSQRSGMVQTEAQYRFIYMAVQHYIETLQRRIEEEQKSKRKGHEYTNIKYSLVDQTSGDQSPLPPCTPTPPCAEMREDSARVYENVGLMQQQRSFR

[9] = biological target: T3, GST-SHIP.SH2 fusion protein (murine, UniProt Q9ES52 8-104); experiment: SPR (BIAcore), phosphopeptide (25 RU) on streptavidin chip, FIG. 16
T3 construct: also called SH2 domain of SHIP; not shown: Glutathione S-transferase (GST) fusion partner
T3 sequence (looked up): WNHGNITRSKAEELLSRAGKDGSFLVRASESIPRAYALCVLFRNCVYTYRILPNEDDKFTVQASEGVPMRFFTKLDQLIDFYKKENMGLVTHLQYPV
Protocol: Surface plasmon resonance measurements were performed on a BIAcore apparatus (BIAcore). The GST-SHP1.SH2(NC), GST-SHP2.SH2(NC) and GST-SHIP.SH2 fusion proteins generated from the murine phosphatase cDNAs, were purified from DH5α lysates as previously described. Before their use in BIAcore experiments, fusion proteins were dialyzed in HBS buffer pH 7.4 (10 mM HEPES, 150 mM NaCl, 3.4 mM EDTA). Protein purity was assessed by 12.5% SDS-PAGE, and Coomassie blue staining. The running buffer used in all BIAcore experiments consisted of HBS buffer supplemented with 0.05% surfactant P20. Equilibrium constant determination (koff and kₒₙ) was performed using BIAevaluation 2.0 software. The equilibrium dissociation constants KD were calculated from the koff/kₒₙ ratio.
The measurement of phosphorylated peptide binding to GST-SHP-1.SH2(N+C) and GST-SHP-2.SH2(N+C) fusion proteins was performed at a constant 5 μl/min flow rate. […] Results are expressed as corrected resonance units (CRU) corresponding to the raw RU values after subtraction of background RU value due to the injection medium, koff and kₒₙ were calculated from three independent measurements using the BIAevaluation 2.0 software. In addition, kₒₙ was calculated as the slope of the curve kg=kₒₙ×c−koff, where koff is the off-rate constant and c is the concentration of the soluble recombinant GST fusion proteins. […]

[10] = biological target: T4, SHIP polyinositol phosphatase from RBL-2H3 cell lysates (rat (cell line RBL-2H3), UniProt P97573 1-1190, limits assumed); experiment: cell lysate adsorption to peptide beads, immunoblot (RBL-2H3), FIG. 15A
T4 construct: Detected by immunoblot with anti-SHIP antiserum
T4 sequence (looked up): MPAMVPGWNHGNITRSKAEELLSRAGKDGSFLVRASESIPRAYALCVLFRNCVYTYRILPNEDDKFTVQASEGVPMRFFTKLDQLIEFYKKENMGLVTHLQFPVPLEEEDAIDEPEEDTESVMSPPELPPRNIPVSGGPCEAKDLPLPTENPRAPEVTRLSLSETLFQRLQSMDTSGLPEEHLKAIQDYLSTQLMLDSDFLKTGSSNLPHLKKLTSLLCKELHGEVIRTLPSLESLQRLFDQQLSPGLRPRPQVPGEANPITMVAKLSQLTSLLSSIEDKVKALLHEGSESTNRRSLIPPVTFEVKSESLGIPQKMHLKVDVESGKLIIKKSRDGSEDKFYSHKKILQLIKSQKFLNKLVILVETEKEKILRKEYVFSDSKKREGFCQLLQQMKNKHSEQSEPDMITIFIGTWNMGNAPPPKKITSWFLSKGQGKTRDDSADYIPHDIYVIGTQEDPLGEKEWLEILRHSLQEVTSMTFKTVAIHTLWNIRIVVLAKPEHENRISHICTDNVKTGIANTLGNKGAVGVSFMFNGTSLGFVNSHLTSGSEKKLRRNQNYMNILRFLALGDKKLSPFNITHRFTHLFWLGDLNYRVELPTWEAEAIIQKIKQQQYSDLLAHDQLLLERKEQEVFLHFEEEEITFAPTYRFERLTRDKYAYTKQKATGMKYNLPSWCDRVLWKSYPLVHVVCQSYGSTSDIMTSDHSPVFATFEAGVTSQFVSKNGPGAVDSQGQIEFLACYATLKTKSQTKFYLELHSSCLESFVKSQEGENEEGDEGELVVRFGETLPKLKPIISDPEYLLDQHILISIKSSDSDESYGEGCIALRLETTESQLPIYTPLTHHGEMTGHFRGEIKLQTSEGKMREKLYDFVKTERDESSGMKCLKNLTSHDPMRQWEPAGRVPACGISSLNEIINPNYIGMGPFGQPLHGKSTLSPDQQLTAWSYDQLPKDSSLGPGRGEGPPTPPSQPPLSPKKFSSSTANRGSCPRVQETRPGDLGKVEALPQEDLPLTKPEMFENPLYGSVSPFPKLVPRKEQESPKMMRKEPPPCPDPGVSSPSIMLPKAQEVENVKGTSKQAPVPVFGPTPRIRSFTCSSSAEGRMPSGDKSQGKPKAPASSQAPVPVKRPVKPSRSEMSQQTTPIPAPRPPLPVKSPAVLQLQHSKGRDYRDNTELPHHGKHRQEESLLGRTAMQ
Protocol: In an attempt to characterize the function of these putative ITIMs, cell lysates were incubated with phosphorylated and nonphosphorylated synthetic peptides corresponding to the N-terminal and the C-terminal I/VxYxxL stretches present in NKG2A intracytoplasmic domain. Cell lysates absorbed to peptides were then assayed by immunoblotting for the presence of the phosphatases known to interact with phosphorylated ITIMs, i.e. the protein tyrosine phosphatases SHP-1 and SHP-2, as well as the polyinositol phosphate phosphatase, SHIP. In parallel, lysates adsorption were performed using control peptides corresponding to ITIMs present in Ig-like ITIM bearing receptors such as human KIRs (p58.2/CD158b, a receptor for HLA-Cw3) and mouse FcγRIIB, as well as in mouse lectin-like ITIM-bearing receptor, such as Ly-49A.
As shown in FIG. 15A (lanes 1 and 2), both N- and C-terminal I/VxYxxL stretches present in NKG2A associate with SHP-1 and SHP-2 in vitro, but no binding to SHIP was detected. Similar patterns of association were obtained using the phosphorylated ITIM peptides of […] and p58.2 KIR (FIG. 15A, lanes 3 to 5). In contrast, FcγRIIB phosphorylated ITIM peptides also associate with SHIP (FIG. 15A, lane 6). No association of phosphatases with nonphosphorylated peptides corresponding to FcγRIIB (FIG. 15A, lane 7) and NKG2A N- and C-terminal I/VxYxxL stretches was detected. When nonphosphorylated and phosphorylated peptides were used to adsorb lysates prepared from ³⁵S methionine/cysteine-labeled cells, only two bands around 64 and 68 kDa selectively associate with both phosphorylated NKG2A N- and C-terminal I/VxYxxL stretches, as compared to nonphosphorylated ones (FIG. 15B). The 64 and 68 kDa proteins which bind to phosphorylated NKG2A peptides correspond to SHP-1 and SHP-2 apparent molecular weight respectively, supporting the immunoblotting results. Therefore, our results define the two NKG2A I/VxYxxL stretches as ITIMs which appear to function similarly to other ITIMs present in inhibitory receptors for MHC class I molecules, i.e. KIRs and Ly-49 molecules. Using recombinant soluble tandem SH2 domains of SHP-1 and SHP-2, we confirmed by surface plasmon resonance that both NKG2A ITIM phosphopeptides directly associate with the SH2 domains of SHP-1 and SHP-2, but not with the SH2 domain of SHIP (FIG. 16).

[11] = biological target: T4, SHIP polyinositol phosphatase from …; experiment: cell lysate adsorption to peptide beads, immunoblot (RBL-2H3)
[12] = biological target: T5, human NKG2A on NKL, M117-14 and 7-10 cells (human, UniProt P26715 1-233); experiment: immunoprecipitation with anti-NKG2A and anti-CD94 mAb
T5 construct: whole, on cells
T5 sequence (P26715 whole entry): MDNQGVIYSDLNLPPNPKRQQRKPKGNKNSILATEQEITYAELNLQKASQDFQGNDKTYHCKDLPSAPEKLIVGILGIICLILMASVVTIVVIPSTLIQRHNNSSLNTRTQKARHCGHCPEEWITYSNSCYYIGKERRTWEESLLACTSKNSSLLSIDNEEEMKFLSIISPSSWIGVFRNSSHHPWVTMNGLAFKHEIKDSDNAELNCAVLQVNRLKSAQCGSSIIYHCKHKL

T1 sequence (P81718 whole entry): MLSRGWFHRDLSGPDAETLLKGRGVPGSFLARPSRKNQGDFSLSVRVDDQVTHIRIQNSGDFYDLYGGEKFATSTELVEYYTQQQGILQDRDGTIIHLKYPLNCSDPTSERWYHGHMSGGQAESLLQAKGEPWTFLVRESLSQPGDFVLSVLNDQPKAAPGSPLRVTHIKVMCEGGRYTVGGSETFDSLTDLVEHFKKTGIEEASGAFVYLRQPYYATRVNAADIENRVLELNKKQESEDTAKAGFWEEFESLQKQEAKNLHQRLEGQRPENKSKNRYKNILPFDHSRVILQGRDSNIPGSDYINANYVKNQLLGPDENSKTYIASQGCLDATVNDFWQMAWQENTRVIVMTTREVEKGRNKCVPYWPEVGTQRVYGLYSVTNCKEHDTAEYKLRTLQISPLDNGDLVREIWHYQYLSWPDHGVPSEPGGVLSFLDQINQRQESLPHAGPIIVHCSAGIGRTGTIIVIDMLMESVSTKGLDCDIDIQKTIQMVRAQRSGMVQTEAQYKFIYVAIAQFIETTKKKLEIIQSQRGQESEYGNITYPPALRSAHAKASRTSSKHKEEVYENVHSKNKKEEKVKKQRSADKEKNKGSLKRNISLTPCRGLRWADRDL

Kd [1]: 1 to 5 nM
Kd [2]: 4.8 nM
koff [2]: 0.00189 s⁻¹
kon [2]: 390000 M⁻¹ s⁻¹
Kd [3]: 2.83 nM
koff [3]: 0.00117 s⁻¹
kon [3]: 410000 M⁻¹ s⁻¹
Molecule: GST-SHP-1.SH2(N+C) fusion protein (from UniProt P29351 1-217)

Kd [2]: 1.38 nM
koff [2]: 0.00142 s⁻¹
kon [2]: 1.03e+06 M⁻¹ s⁻¹
Kd [3]: 1.57 nM
koff [3]: 0.00132 s⁻¹
kon [3]: 840000 M⁻¹ s⁻¹
Kd [4]: 1 to 5 nM
Molecule: GST-SHP-2.SH2(N+C) fusion protein (from UniProt P35235 1-220)

Molecule: Y1MDGTMSQV9 [TYR]
TNF production [5]: released TNF
CTL lysis (auto-toxicity) [6]: lysed in a dose-dependent manner

binding result [7]: no binding
binding result [8]: no binding
B1: phosphorylated FcγRIIB-I260A peptide (peptide)
peptide: Biotin-KTEAENTAT[pY]SLLK
notes: also called FcγRIIB 1-I260A; mutated FcγRIIB ITIM

binding result [9]: no binding (tested: 100 nM)
binding result [10]: no binding
B2: phosphorylated NKG2A N-term peptide (N-terminal ITIM) (peptide)
peptide: Biotin-MDNQGVI[pY]SDLNL
notes: also called NKG2-A N-terminal ITIM; NKG2A/B phosphorylated ITIM peptide

binding result [11]: no binding
B3: non-phosphorylated NKG2A N-term peptide (peptide)
peptide: Biotin-MDNQGVIYSDLNL
notes: also called nonphosphorylated NKG2A N-terminal I/VxYxxL stretch

binding result [12]: binds
B4: human CD94 on NKL, M117-14 and 7-10 cells (receptor, UniProt Q13241 1-179, looked up)
chain: MAVFKTTLWRLISGTLGIICLSLMSTLGILLKNSFTKLSIEPAFTPGPNIELQKDSDCCSCQEKWVGYRCNCYFISSEQKTWNESRHLCASQKSSLLQLQNTDELDFMSSSQQFYWIGLSYSEEHTAWLWENGSALSQYLFPSFETFNTKNCIAYNPNGNALDESCEDKNRYICKQQLI
notes: whole, on cells
